From patent CN115724950A (YIDAO BIOTECHNOLOGY SUZHOU CO LTD, dated 2023) come the findings set out here.

The target of assay [1] is T1, HPV6-GFP假病毒 (Human papillomavirus type 6, UniProt P69899 1-500).
T1 sequence: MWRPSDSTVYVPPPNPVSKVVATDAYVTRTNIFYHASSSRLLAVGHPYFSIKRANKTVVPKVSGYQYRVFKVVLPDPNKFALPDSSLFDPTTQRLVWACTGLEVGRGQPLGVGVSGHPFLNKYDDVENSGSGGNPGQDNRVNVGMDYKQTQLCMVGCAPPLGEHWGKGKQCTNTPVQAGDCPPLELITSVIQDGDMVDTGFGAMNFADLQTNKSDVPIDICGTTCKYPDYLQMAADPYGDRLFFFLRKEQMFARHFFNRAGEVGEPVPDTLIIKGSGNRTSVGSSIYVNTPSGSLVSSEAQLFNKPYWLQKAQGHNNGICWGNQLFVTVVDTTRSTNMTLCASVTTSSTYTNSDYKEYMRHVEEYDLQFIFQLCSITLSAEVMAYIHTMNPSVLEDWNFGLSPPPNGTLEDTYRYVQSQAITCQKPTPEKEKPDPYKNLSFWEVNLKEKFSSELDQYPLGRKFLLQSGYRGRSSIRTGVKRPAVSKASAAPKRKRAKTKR
The experiment in a line: cell-based or functional assay.

In assay [2] the target is T2, HPV 58 抗原 (Human papillomavirus type 58, UniProt P26535 27-524).
T2 sequence: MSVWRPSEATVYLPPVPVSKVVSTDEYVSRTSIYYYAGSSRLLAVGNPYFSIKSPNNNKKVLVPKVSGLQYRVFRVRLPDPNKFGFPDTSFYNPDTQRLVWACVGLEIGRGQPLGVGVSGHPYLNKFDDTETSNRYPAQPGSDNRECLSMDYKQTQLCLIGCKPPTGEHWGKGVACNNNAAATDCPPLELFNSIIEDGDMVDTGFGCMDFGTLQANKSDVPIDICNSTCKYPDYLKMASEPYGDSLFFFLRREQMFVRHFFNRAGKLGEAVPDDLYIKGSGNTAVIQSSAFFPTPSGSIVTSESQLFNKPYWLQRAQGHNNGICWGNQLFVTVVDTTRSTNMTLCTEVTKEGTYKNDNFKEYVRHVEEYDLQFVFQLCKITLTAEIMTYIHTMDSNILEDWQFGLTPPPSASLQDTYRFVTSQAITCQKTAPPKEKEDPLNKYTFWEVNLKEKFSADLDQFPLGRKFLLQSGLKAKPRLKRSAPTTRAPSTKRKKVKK
Briefly: indirect ELISA, antigen coated at 1 μg/ml, supernatant diluted 20-fold. (ELISA stands for enzyme-linked immunosorbent assay.)

Assay [3] concerns the target T3, HPV31 抗原 (Human papillomavirus type 31, UniProt P17388 1-504).
T3 sequence: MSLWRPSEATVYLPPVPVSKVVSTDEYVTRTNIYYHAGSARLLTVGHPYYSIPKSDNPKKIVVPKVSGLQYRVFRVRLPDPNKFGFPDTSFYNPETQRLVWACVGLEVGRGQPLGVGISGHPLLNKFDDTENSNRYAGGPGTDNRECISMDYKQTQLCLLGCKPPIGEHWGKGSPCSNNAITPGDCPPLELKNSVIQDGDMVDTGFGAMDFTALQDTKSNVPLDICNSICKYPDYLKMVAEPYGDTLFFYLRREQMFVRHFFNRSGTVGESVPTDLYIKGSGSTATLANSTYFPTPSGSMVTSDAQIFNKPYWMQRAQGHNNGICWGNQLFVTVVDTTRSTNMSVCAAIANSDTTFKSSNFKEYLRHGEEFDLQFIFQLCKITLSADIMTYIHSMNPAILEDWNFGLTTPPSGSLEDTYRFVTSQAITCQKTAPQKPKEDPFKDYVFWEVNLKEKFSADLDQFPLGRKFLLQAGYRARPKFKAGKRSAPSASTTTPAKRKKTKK
The description is as above.

Assay [4] deals with T4, HPV 33 抗原 (Human papillomavirus type 33, UniProt P06416 1-499).
T4 sequence: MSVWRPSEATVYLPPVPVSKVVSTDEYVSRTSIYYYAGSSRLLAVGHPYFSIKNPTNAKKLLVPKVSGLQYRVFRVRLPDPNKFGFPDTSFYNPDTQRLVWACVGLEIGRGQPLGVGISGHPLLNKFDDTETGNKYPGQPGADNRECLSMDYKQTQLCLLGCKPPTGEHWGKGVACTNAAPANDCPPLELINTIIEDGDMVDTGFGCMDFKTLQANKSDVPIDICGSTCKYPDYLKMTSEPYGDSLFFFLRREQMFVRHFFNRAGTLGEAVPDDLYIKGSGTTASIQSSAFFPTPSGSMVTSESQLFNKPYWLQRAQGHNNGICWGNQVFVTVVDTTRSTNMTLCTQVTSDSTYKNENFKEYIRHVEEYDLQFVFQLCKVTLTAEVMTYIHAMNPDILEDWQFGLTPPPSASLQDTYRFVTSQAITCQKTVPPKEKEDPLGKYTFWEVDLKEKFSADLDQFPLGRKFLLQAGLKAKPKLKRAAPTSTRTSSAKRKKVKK
The assay is described as above.

The target in assay [5] is T5, HPV 18 抗原 (Human papillomavirus type 18, UniProt P06794 62-568).
T5 sequence: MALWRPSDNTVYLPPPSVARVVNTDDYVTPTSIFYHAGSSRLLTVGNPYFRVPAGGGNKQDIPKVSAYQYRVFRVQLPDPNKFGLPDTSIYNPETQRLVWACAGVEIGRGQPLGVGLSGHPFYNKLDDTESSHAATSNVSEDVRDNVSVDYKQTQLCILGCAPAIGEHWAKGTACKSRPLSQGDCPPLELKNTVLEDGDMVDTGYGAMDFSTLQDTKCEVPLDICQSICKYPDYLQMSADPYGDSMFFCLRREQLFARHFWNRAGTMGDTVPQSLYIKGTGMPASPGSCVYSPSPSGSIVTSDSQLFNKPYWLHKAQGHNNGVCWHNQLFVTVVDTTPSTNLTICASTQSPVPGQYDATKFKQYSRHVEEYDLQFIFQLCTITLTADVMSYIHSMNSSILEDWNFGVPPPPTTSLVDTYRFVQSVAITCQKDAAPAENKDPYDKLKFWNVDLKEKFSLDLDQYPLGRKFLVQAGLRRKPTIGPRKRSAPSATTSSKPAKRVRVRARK
The assay is described as above.

In assay [6] the target is T6, HPV 45 抗原 (Human papillomavirus type 45, UniProt P36741 27-539).
T6 sequence: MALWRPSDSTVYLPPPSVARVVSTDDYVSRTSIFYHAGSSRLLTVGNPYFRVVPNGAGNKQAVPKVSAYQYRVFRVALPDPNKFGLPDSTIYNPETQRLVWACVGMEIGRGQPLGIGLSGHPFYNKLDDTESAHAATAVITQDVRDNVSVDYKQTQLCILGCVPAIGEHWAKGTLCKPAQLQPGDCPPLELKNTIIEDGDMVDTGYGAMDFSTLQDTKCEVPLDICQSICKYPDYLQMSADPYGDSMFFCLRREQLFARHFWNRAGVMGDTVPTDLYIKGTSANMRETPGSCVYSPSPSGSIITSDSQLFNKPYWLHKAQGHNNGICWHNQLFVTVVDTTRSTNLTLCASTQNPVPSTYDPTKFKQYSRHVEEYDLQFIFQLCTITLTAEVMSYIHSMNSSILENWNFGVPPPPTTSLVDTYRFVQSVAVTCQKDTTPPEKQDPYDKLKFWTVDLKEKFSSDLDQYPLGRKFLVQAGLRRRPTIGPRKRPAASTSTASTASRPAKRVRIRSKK
The description is as above.

Assay [7] concerns the target T7, HPV11 抗原 (Human papillomavirus type 11, UniProt P04012 1-501).
T7 sequence: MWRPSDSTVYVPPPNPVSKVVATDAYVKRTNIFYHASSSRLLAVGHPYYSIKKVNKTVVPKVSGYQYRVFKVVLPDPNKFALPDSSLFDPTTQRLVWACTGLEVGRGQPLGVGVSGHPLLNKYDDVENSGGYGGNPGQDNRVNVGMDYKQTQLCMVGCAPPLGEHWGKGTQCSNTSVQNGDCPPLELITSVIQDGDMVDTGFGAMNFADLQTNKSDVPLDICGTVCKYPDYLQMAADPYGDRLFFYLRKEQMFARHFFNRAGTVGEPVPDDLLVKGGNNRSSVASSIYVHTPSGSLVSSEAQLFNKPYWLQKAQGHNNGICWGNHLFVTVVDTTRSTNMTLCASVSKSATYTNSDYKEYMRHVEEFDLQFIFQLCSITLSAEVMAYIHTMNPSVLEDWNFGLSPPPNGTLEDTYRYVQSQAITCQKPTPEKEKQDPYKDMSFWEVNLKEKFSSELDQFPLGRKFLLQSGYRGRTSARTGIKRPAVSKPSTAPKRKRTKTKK
Described as above.

In assay [8] the target is T8, HPV 16 抗原 (Human papillomavirus type 16, UniProt P03101 1-505).
T8 sequence: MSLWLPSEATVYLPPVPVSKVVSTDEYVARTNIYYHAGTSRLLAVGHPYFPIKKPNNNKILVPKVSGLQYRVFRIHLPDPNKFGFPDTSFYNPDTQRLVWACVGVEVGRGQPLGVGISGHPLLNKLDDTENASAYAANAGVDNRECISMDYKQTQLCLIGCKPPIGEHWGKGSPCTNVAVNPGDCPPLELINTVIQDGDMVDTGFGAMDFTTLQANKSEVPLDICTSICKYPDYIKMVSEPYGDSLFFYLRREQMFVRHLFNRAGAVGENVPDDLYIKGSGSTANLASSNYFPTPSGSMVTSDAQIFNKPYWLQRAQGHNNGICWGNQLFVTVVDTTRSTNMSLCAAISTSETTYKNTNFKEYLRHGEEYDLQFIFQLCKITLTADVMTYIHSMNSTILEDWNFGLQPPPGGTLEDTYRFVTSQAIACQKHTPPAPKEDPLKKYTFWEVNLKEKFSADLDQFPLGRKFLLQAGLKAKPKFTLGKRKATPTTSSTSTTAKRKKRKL
The assay is described as above.

B1: 1G11 鼠源单克隆抗体 (杂交瘤 CGMCC No.45133) (antibody, V domains shown)
VH: EVKLVESGGGLVKPGGSLKLSCAASGVTFSSYAMSWVRQTPEKRLEWVASITRGGSTYYPDSVKGRFTISRDNARNILYLQMSSLRSEDTAMYYCAREGEDYYGSSYVDYWGQGTTLTVSS
VL: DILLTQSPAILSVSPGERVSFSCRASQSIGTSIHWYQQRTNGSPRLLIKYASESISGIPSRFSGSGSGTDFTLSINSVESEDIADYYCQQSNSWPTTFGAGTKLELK
notes: Tested as hybridoma supernatant (1.3, 1.4) and as protein G purified ascites antibody (1.6, 3.1); also called 第一单克隆抗体; 1G11 Lot#:2021081603
Regarding B1, the “假病毒中和实验 (HPV6-GFP假病毒, 293FT细胞, 荧光斑点数)” value in assay [1] was ≥ 5120 fold dilution of supernatant. The “假病毒中和实验, 中和活性” value in assay [1] was 20500 fold dilution (titre). Moreover, the binding result in assay [2], in assay [3], in assay [4], in assay [5], in assay [6] and in assay [7] was “no binding” throughout. For the same molecule, in assay [8], the binding result is listed as “no binding”.

B2: 6H1 鼠源单克隆抗体 (杂交瘤 CGMCC No.45134) (antibody, V domains shown)
VH: EVQLQQSGPEVVKTGASVKISCKASGYSFTGYYMHWVKQSHGKSLEWIGYISCYNGATSYNQKFKGKATFTLDTSSSTAYMQFNSLTSEDSAVYYCAREDEYDGAYYLDYWGQGTTLTVSS
VL: DIVMTQSQKFMSTSVGDRVSVTCKASQNVGTNVAWYQQKPGQSPKTLIYSASYRYSGVPDRFTGSGSGTDFTLTISNVQSEDLAEYFCQQYFRYPLTFGAGTKLELK
notes: Tested as hybridoma supernatant (1.3, 1.4) and as protein G purified ascites antibody (1.6, 3.1); also called 第二单克隆抗体; 6H1 Lot#:2021081604
Turning to B2, the “假病毒中和实验 (HPV6-GFP假病毒, 293FT细胞, 荧光斑点数)” value in assay [1] is ≥ 5120 fold dilution of supernatant. In addition, the “假病毒中和实验, 中和活性” value in assay [1] is 20500 fold dilution (titre). Moreover, the binding result in assay [2], in assay [3], in assay [4], in assay [5], in assay [6] and in assay [7] was “no binding” throughout. Also, the binding result in assay [8] is on record as “no binding”.
